The numbers were not newly measured in patent US8618048B2, “Insulin analogues of prolonged activity” (Instytut Biotechnologii I Antybiotyków, priority 2008, dated 2013), which cites them from elsewhere.

The conditions of this data set: background statement.

As for “unmodified natural insulin: unmodified natural insulin”, the isoelectric point was 5.4.
